Sequences and labels used below:
B1: mSHARPIN_(163–301) [mouse] / GST-mHOIP_(466–630) [mouse] (parent complex)
chain 1: SSGNFKKEELATRLSQAIAGGDEKAAAQVAAVLAQHHVALNVQLMEAWFPPGPIRLQVTVEDATSVLSSSSSAHVSLKIHPHCSIAALQDQVFSEFGFPPAVQRWVIGRCLCMPERSLASYGVSQDGDPAFLYLLSAPR
chain 2: SCGDPEKQRQDKMRKEGLQLVSMIQEGETAGASPEEVFSALQYSGTEVPLQWLRSELSYVLEMVAELAGQQDPELGAFSCQEARKAWLDRHGNLDEAVEECVRARRRKVHELQSLGFGPKEGSLQALFQHGGDVARALTELQRQRLEPFHQRLWDRDPEPTPCWD
B2: mHOIL-1L_(1–140) [mouse] / GST-mHOIP_(466–630) [mouse] (parent complex)
chain 1: MDEKTKKAEEMALSLARAVAGGDEQAAIKYATWLAEQRVPLRVQVKPEVSPTQDIRLCVSVEDAYMHTVTIWLTVRPDMTVASLKDMVFLDYGFPPSLQQWVVGQRLARDQETLHSHGIRRNGDGAYLYLLSARNTSLNP
chain 2: B1 chain 2
B3: MBP-mSHARPIN UBL_(163–301) [mouse] / mHOIL-1L_(1–189)-strep [mouse] (parent complex)
chain 1: B1 chain 1
chain 2: MDEKTKKAEEMALSLARAVAGGDEQAAIKYATWLAEQRVPLRVQVKPEVSPTQDIRLCVSVEDAYMHTVTIWLTVRPDMTVASLKDMVFLDYGFPPSLQQWVVGQRLARDQETLHSHGIRRNGDGAYLYLLSARNTSLNPQELQRQRQLRMLEDLGFKDLTLQSRGPLEPVLPKPRTNQEPGQPDAAPE
B4: mHOIL-1L_(1–140) and mSHARPIN_(163–301) applied together [mouse] / GST-mHOIP_(466–630) [mouse] (parent complex)
chain 1: B2 chain 1
chain 2: B1 chain 1
chain 3: B1 chain 2

For seven variants, response results are on record in publication PMC6044281, “Cooperative Domain Formation by Homologous Motifs in HOIL-1L and SHARPIN Plays A Crucial Role in LUBAC Stabilization” (Cell reports, 2018).

The variants in the first test derive from B1. The test is described as follows: SPR; response read at end of injection (about 180 s); GST-mHOIP D-UBA UBA1mut immobilized with anti-GST antibody; read off a plot. Background: In SPR one partner is held on a chip, and binding of the other changes the refractive index at the surface.
As for chain 2 SCGDPEKQAQDKMRKEGAQLASMIQEGETAGASPEEVFSALQYSGTEVPLQWLRSELSYVLEMVAELAGQQDPELGAFSCQEARKAWLDRHGNLDEAVEECVRARRRKVHELQSLGFGPKEGSLQALFQHGGDVARALTELQRQRLEPFHQRLWDRDPEPTPCWD, the response is approximately 0 RU.

The next test covers variants of B1. Kind of test: SPR; response read at end of injection (about 180 s); GST-mHOIP D-UBA UBA2mut immobilized with anti-GST antibody; read off a plot.
On to chain 2 SCGDPEKQRQDKMRKEGLQLVSMIQEGETAGASPEEVFSALQYSGTEVPLQWLRSELSYVLEMVAELAGQQDPELGAFSCQEARKAWLDRHGNLDEAVEECVRARRRKVHELQSLGFGPKEGSLQALFQHGGDVARALTELARQRAEPAHQRLWDRDPEPTPCWD, for which the response is approximately 5 RU.

Variants of B2 are the subject of the next test. Kind of test: SPR; response read at end of injection (about 180 s); GST-mHOIP D-UBA UBA1mut immobilized with anti-GST antibody; read off a plot.
Take chain 2 SCGDPEKQAQDKMRKEGAQLASMIQEGETAGASPEEVFSALQYSGTEVPLQWLRSELSYVLEMVAELAGQQDPELGAFSCQEARKAWLDRHGNLDEAVEECVRARRRKVHELQSLGFGPKEGSLQALFQHGGDVARALTELQRQRLEPFHQRLWDRDPEPTPCWD: the response is approximately 60 RU.

Variants of B2 are the subject of another test. The test is described as follows: SPR; response read at end of injection (about 180 s); GST-mHOIP D-UBA UBA2mut immobilized with anti-GST antibody; read off a plot.
Consider chain 2 SCGDPEKQRQDKMRKEGLQLVSMIQEGETAGASPEEVFSALQYSGTEVPLQWLRSELSYVLEMVAELAGQQDPELGAFSCQEARKAWLDRHGNLDEAVEECVRARRRKVHELQSLGFGPKEGSLQALFQHGGDVARALTELARQRAEPAHQRLWDRDPEPTPCWD, for which the response is approximately -3 RU.

Variants of B3 are the subject of another test. The test is described as follows: SPR; analyte 40 mM as printed in the legend; response read at end of injection (about 175 s); mHOIL-1L1-189-strep immobilized with anti-strep antibody; parent: 45; read off a plot.
As to chain 1 SSGNFKKEELATRASQAAAGGDEKAAAQVAAVLAQHHVALNVQLMEAWFPPGPIRLQVTVEDATSVLSSSSSAHVSLKIHPHCSIAALQDQVFSEFGFPPAVQRWVIGRCLCMPERSLASYGVSQDGDPAFLYLLSAPR, the response was approximately 3 RU.

The variants in another test derive from B4. Kind of test: SPR; response read at end of injection (about 180 s); GST-mHOIP D-UBA UBA2mut immobilized with anti-GST antibody; read off a plot.
On to chain 3 SCGDPEKQRQDKMRKEGLQLVSMIQEGETAGASPEEVFSALQYSGTEVPLQWLRSELSYVLEMVAELAGQQDPELGAFSCQEARKAWLDRHGNLDEAVEECVRARRRKVHELQSLGFGPKEGSLQALFQHGGDVARALTELARQRAEPAHQRLWDRDPEPTPCWD, for which the response is approximately 120 RU.

A further test covers variants of B4. The test is described as follows: SPR; response read at end of injection (about 180 s); GST-mHOIP D-UBA UBA1mut immobilized with anti-GST antibody; read off a plot.
Consider chain 3 SCGDPEKQAQDKMRKEGAQLASMIQEGETAGASPEEVFSALQYSGTEVPLQWLRSELSYVLEMVAELAGQQDPELGAFSCQEARKAWLDRHGNLDEAVEECVRARRRKVHELQSLGFGPKEGSLQALFQHGGDVARALTELQRQRLEPFHQRLWDRDPEPTPCWD, for which the response is approximately 170 RU.
